Values quoted from earlier work in patent US7850723B1, “Method and apparatus for patient temperature control employing titration of therapy using EEG signals” (Innercool Therapies, Inc., priority 2005, dated 2010).

B1: α2-antiplasmin (protein, UniProt P08697 40-491, looked up)
Alpha-2-antiplasmin: NQEQVSPLTLLKLGNQEPGGQTALKSPPGVCSRDPTPEQTHRLARAMMAFTADLFSLVAQTSTCPNLILSPLSVALALSHLALGAQNHTLQRLQQVLHAGSGPCLPHLLSRLCQDLGPGAFRLAARMYLQKGFPIKEDFLEQSEQLFGAKPVSLTGKQEDDLANINQWVKEATEGKIQEFLSGLPEDTVLLLLNAIHFQGFWRNKFDPSLTQRDSFHLDEQFTVPVEMMQARTYPLRWFLLEQPEIQVAHFPFKNNMSFVVLVPTHFEWNVSQVLANLSWDTLHPPLVWERPTKVRLPKLYLKHQMDLVATLSQLGLQELFQAPDLRGISEQSLVVSGVQHQSTLELSEVGVEAAAATSIAMSRMSLSSFSVNRPFLFFIFEDTTGLPLFVGSVRNPNPSAPRELKEQQDSPGNKDFLQSLKGFPRGDKLFGPDLKLVPPMEEDYPQFGSPK
B2: tissue plasminogen activator (protein, UniProt P00750 36-562, looked up)
Tissue-type plasminogen …: SYQVICRDEKTQMIYQQHQSWLRPVLRSNRVEYCWCNSGRAQCHSVPVKSCSEPRCFNGGTCQQALYFSDFVCQCPEGFAGKCCEIDTRATCYEDQGISYRGTWSTAESGAECTNWNSSALAQKPYSGRRPDAIRLGLGNHNYCRNPDRDSKPWCYVFKAGKYSSEFCSTPACSEGNSDCYFGNGSAYRGTHSLTESGASCLPWNSMILIGKVYTAQNPSAQALGLGKHNYCRNPDGDAKPWCHVLKNRRLTWEYCDVPSCSTCGLRQYSQPQFRIKGGLFADIASHPWQAAIFAKHRRSPGERFLCGGILISSCWILSAAHCFQERFPPHHLTVILGRTYRVVPGEEEQKFEVEKYIVHKEFDDDTYDNDIALLQLKSDSSRCAQESSVVRTVCLPPADLQLPDWTECELSGYGKHEALSPFYSERLKEAHVRLYPSSRCTSQHLLNRTVTDNMLCAGDTRSGGPQANLHDACQGDSGGPLVCLNDGRMTLVGIISWGLGCGQKDVPGVYTKVTNYLDWIRDNMRP

Legend:
plasmin = plasmin (Homo sapiens, UniProt P00747)
plasmin, sequence (P00747 581-810 limits assumed, species assumed): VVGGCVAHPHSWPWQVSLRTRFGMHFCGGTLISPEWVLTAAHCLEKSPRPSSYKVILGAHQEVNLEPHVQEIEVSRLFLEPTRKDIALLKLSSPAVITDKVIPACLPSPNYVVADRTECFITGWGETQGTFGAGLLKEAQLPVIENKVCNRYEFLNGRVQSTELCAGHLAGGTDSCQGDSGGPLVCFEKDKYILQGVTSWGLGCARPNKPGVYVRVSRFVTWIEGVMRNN
plasmin, sequence (P00747 97-580 partner limits assumed, species assumed): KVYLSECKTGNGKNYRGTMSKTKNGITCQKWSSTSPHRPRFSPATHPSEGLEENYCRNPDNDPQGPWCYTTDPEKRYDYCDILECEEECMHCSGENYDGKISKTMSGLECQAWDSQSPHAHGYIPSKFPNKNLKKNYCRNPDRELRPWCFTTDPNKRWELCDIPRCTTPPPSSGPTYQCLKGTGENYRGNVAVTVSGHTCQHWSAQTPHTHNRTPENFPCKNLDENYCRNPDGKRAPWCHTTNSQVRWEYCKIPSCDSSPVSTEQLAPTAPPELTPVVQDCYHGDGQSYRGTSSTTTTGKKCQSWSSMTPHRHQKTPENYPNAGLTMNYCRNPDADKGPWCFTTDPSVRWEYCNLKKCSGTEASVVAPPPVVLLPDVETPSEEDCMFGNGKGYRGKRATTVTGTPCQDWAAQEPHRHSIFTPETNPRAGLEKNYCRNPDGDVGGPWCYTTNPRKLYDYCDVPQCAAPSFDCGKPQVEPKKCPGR

clots [1] = conditions: clots treated with 2.5 μg/ml tPA; incubated at 37, 25, 10, 0 and −8° C.
clots [2] = conditions: tPA 0.3, 1.0 and 3.0 μg/ml; incubated at 24° C. to 40° C.

Molecule	time required to inactivate plasmin bound to a fibrin surface (plasmin)	plasminogen activation (clots [1])	amount of clot lysis (clots [2])
B1	about 10 seconds	–	–
B2	–	relatively high at low temperatures	the amount of clot lysis at lower temperatures was less than that at higher temperatures
